# Source: patent publication US7338932
# T1: EA2 acceptor peptide (PTTDSTTPAPTTK)
# T1 chain: PTTDSTTPAPTTK
# T2: MUC2 acceptor peptide (PTTTPISTTTMVTPTPTPTC)
# T2 chain: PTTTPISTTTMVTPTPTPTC
# T3: MUC7 acceptor peptide (Ac-CPPTPSATTPAPPSSSAPPETTAA)
# T3 chain: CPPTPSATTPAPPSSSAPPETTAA
# Tests used:
# [1] = molecular target: T1, EA2 acceptor peptide (PTTDSTTPAPTTK)
# [2] = molecular target: T2, MUC2 acceptor peptide …
# [3] = molecular target: T3, MUC7 acceptor peptide …
protein,measurement,setting,value
human recombinant GalNAc-T3 (enzyme source of Example 6) (protein) MERNMKNKNKMLDLMLEAVNNIKDAMPKMQIGAPVRQNIDAGERPCLQGYYTAAELKPVLDRPPQDSNAPGASGKAFKTTNLSVEEQKEKERGEAKHCFNAFASDRISLHRDLGPDTRPPECIEQKFKRCPPLPTTSVIIVFHNEAWSTLLRTVHSVLYSSPAILLKEIILVDDASVDEYLHDKLDEYVKQFSIVKIVRQRERKGLITARLLGATVATAETLTFLDAHCECFYGWLEPLLARIAENYTAVVSPDIASIDLNTFEFNKPSPYGSNHNRGNFDWSLSFGWESLPDHEKQRRKDETYPIKTPTFAGGLFSISKEYFEYIGSYDEEMEIWGGENIEMSFRVWQCGGQLEIMPCSVVGHVFRSKSPHSFPKGTQVIARNQVRLAEVWMDEYKEIFYRRNTDAAKIVKQKAFGDLSKRFEIKHRLQCKNFTWYLNNIYPEVYVPDLNPVISGYIKSVGQPLCLDVGENNQGGKPLIMYTCHGLGGNQYFEYSAQHEIRHNIQKELCLHAAQGLVQLKACTYKGHKTVVTGEQIWEIQKDQLLYNPFLKMCLSANGEHPSLVSCNPSDPLQKWILSQND,galactosyltransferase activity with UDP-Gal,[1],"EA2, 6.8 nmol/min/ml"
same,galactosyltransferase activity with UDP-Gal,[2],"Muc2, 0 nmol/min/ml"
same,galactosyltransferase activity with UDP-Gal,[3],"Muc7, 0.1 nmol/min/ml"
